{"source": "the nanobody polyreactivity screen of Harvey et al. (2022)", "data": [{"experiment": "yeast display, Sf9 membrane polyspecificity reagent, FACS + sequencing; frameworks hold sequencing errors", "method_in_brief": "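Synthetic nanobody libraries on Saccharomyces cerevisiae BJ5465 were galactose-induced for 36–48 hours, stained 1 hour at 4 °C with 10% biotinylated, detergent-solubilized Sf9 membrane reagent and enriched on streptavidin microbeads. FACS then separated cells into low and high (top ~1%) gates by anti-HA (expression) and streptavidin (reagent binding) fluorescence. Genes were colony-PCR amplified, MiSeq 2 × 250 sequenced and CDR-length filtered. A clone's polyreactivity label is that of its gate of origin.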", "values": [{"sequence": "QVQLVESGGGLVQAGGSLRLSCAASGLTFDANAMGWYRQAPGKERELVATITSGGSTNYADSVKGRFTISRDNAKNTVYLQMNSLKPEDTAVYYCARGTSTGTYYWYGYWGHGTQVTVSS", "polyreactivity (PSR sort gate)": "low polyreactivity"}, {"sequence": "QVQLVESGGGLVQAGGSLRLSCAASGLTFDVYTMVWYRQAPGKERELVATISETYYADSVKGRFTISRDNAKNTVYLQMNSLKPEDTAVYYCAANGFKAQYRDIVYDYGYWGQGTQVTVSS", "polyreactivity (PSR sort gate)": "low polyreactivity"}, {"sequence": "QVQLVESGGGLVQAGGSLRLSCAASGLTFDYNAMGWYRQAPGKERELVAAITSGGSTKYADSVKGRFTISRDNAKNTVYLQMNSLKPEDTAVYYCAATAYVWYYLSYTYYYWGQGTQVTVSS", "polyreactivity (PSR sort gate)": "low polyreactivity"}, {"sequence": "QVQLVESGGGLVQAGGSLRLSCAASGLTFDYYAMGWYRQAPGKERELVAAISISGDRTYYADSVKGRFTISRDNAKNTVYLQMNSLKPEDTAVYYCNARYPGSFRDDYWGQGTQVTVSS", "polyreactivity (PSR sort gate)": "high polyreactivity"}, {"sequence": "QVQLVESGGGLVQAGGSLRLSCAASGLTFFGYAMGWYRQAPGKERELVAPISSSGTRTYYADSVKGRFTISRDNAKNTVYLQMNSLKPEDTAVYYCATVRYQEYDYWGQGTQVTVSS", "polyreactivity (PSR sort gate)": "high polyreactivity"}, {"sequence": "QVQLVESGGGLVQAGGSLRLSCAASGLTFFPNVMGWYRQAPGKERELVAAISRSGDRTFYADSVKGRFTISRDNAKNTVYLQMNSLKPEDTAVYYCAADSGSSRSRRGYEYWGQGTQVTVSS", "polyreactivity (PSR sort gate)": "high polyreactivity"}, {"sequence": "QVQLVESGGGLVQAGGSLRLSCAASGLTFGDYAMGWYRQAPGKEREFVAAISSSTGRTYYADSVKGRFTISRDNAKNTVYLQMNSLKPEDTAVYYCAVRYIYPSHYGYDYWGQGTQVSVSS", "polyreactivity (PSR sort gate)": "low polyreactivity"}, {"sequence": "QVQLVESGGGLVQAGGSLRLSCAASGLTFGDYTMGWYRQAPGKERELVAAITWSGASTYSADSVKGRFTISRDNAKNTVYLQMNSLKPEDTAVYYCAAERTPSYRAYDYWAQGTQVTVSS", "polyreactivity (PSR sort gate)": "low polyreactivity"}, {"sequence": "QVQLVESGGGLVQAGGSLRLSCAASGLTFGFYAMGWYRQAPGKERELVAGISNGGSTNYADSVKGRFTISRDNAKNTVYLQMNSLKPEDTAVYYCAARLYARRLYDYWGQGTQVTVSS", "polyreactivity (PSR sort gate)": "low polyreactivity"}, {"sequence": "QVQLVESGGGLVQAGGSLRLSCAASGLTFGGYAMGWYRQAPGKERELVAAISRSGGSTYYADSVKGRFTISRDNAKNTVYLQMNSLQPEDTAVYYCNGGRGTKYDYWGQGTQVTVSS", "polyreactivity (PSR sort gate)": "low polyreactivity"}, {"sequence": "QVQLVESGGGLVQAGGSLRLSCAASGLTFGGYVMGWYRPAPGKERELVAAISWSGTRTYYADSVKGRFTISRDNAKNTVYLQMNSLKPEDTAVYYCAARVKSYNRGYYWGQGTQVTVSS", "polyreactivity (PSR sort gate)": "high polyreactivity"}, {"sequence": "QVQLVESGGGLVQAGGSLRLSCAASGLTFGHYAMGWYRQAPGKERELVATISSRGVSTRYADSVKGRFTISRDTAKNTVYLQMNSLKPEDTAVYYWHARDYTWGKYYSSKIGYYYWGQGTQVTVSS", "polyreactivity (PSR sort gate)": "high polyreactivity"}, {"sequence": "QVQLVESGGGLVQAGGSLRLSCAASGLTFGIYTMGWYRQAPGKERELVAAINWIGTRTYYADSVKGRFTLSRDNAKNTVYLQMNSLKPEDTAVYYCATVIGYTKRKYDYWGQGTQVTVSS", "polyreactivity (PSR sort gate)": "high polyreactivity"}, {"sequence": "QVQLVESGGGLVQAGGSLRLSCAASGLTFGLYAMGWYRQAPGIERELVAGITAGGRTYYADSVKGRFTISRDNAKNTVYLQMNSLKPEQTAVYYCATVNYRSGRGYRRVYTAYYYWGQGTQVTVSS", "polyreactivity (PSR sort gate)": "low polyreactivity"}, {"sequence": "QVQLVESGGGLVQAGGSLRLSCAASGLTFGNYAMGWYRQAPGKERELVAAISWGGGITYYADSVKGRFTISRDNAKNTVYLQMNSLKPEDTAVYYCAADVYFKSTPEYLYDYWGQGTQVTVSS", "polyreactivity (PSR sort gate)": "low polyreactivity"}, {"sequence": "QVQLVESGGGLVQAGGSLRLSCAASGLTFGPNAMGWYRQAPGKERELVAAITKSGGSTYYADSVKGRFTISRDNAKNTVYLQMNSLKPEDTAVFYCAARAGYKVFGYWGQGTQVTVSS", "polyreactivity (PSR sort gate)": "high polyreactivity"}, {"sequence": "QVQLVESGGGLVQAGGSLRLSCAASGLTFGPYAMGWYRQAPGKERELVAAISLSDTDTYYAASVKGRFTISRDNAKNTGYLQMNSLKPEDTAVYYCAAEDGGLYDYWGQGTQVTVSA", "polyreactivity (PSR sort gate)": "high polyreactivity"}, {"sequence": "QVQLVESGGGLVQAGGSLRLSCAASGLTFGRNAMGWYRQAPGKERELVAAISQSGDRTYYADSVKGRFTISRDNAKNTVYLQMNSLKPEDTAVYYCNAVSSRGWYDYWGQGTQVTLSS", "polyreactivity (PSR sort gate)": "high polyreactivity"}, {"sequence": "QVQLVESGGGLVQAGGSLRLSCAASGLTFGRNAMGWYRQAPGKERELVAAISRSGGRTSYADSVKGRFTISRDNAKNTVYLQMNSLKPEDTAVYYCAARSDVYTHDYWGQGTQVTVSS", "polyreactivity (PSR sort gate)": "high polyreactivity"}, {"sequence": "QVQLVESGGGLVQAGGSLRLSCAASGLTFGRNAMGWYRQAPGKERELVAAITFNGGSTYYADSVKGRFTISRDNAKNTVYLQMNSLKPEDTAVYYCAARLWRRSRFDYWGQGTQVTVSS", "polyreactivity (PSR sort gate)": "high polyreactivity"}, {"sequence": "QVQLVESGGGLVQAGGSLRLSCAASGLTFGVYAMGWYRQAPGKERELVASIRSGGSTYYADSVKGRFTISRDNAKNTVYLQMNSLKPEDTAVYYCAKGTFDLHYRKRYNYWGQGTQVTVSS", "polyreactivity (PSR sort gate)": "low polyreactivity"}, {"sequence": "QVQLVESGGGLVQAGGSLRLSCAASGLTFGWYTMGWYRQAPGKERELVAAISWSGGSTYYADSVKGRFTISRDNAKNTVYLQMNSLKPEDTAVYYCAADQSTVLDVGSWGQGTQVTVSS", "polyreactivity (PSR sort gate)": "low polyreactivity"}, {"sequence": "QVQLVESGGGLVQAGGSLRLSCAASGLTFGWYTMGWYRQAPGKERELVADITWSGGSTYYADSVKGRFTISRDNAKNTVYLQMNSLKPEDTAVYYCAVRYFVIPWYAYDYWGQGTQVTVSS", "polyreactivity (PSR sort gate)": "low polyreactivity"}, {"sequence": "QVQLVESGGGLVQAGGSLRLSCAASGLTFGYNAMGWYRQAPGKERELVAAITYGGGRTYYADSVKGRFTISRDNAMNTVYLQMNSLKPEDPAVYYCNVVWKAYAEYDYWGQGTQVTVSS", "polyreactivity (PSR sort gate)": "high polyreactivity"}, {"sequence": "QVQLVESGGGLVQAGGSLRLSCAASGLTFGYNAMGWYRQAPGNERELVATISYSGGRTYYADSVKGRFTISRDNAKTTVYLQMNSLKPEDTAVYDCATRQRHWSGEFDYWGQGTQVTVSS", "polyreactivity (PSR sort gate)": "high polyreactivity"}, {"sequence": "QVQLVESGGGLVQAGGSLRLSCAASGLTFHAYAMGWYRQAPGKEREFVAAITRSGSSTSYAYSVKGRFTISRDNAKNTVYLQMNSLKPEDTAVYYCAAQGSRKYRNDYWGQGTQVTVSS", "polyreactivity (PSR sort gate)": "high polyreactivity"}, {"sequence": "QVQLVESGGGLVQAGGSLRLSCAASGLTFHPYAMGWYRQAPGKERELVAAISSRGTSTYYADSVKGRFTISRDNAKNTVYLQMNSLKPEDTAVYYCAARHGPRAEAMYYWGQGTQVTVSS", "polyreactivity (PSR sort gate)": "high polyreactivity"}, {"sequence": "QVQLVESGGGLVQAGGSLRLSCAASGLTFHQNAMGWYRKAPGKDRELVAAISRRGGSTYYADSVKGRFTFSRDNAKNTVYLQMNSLKPEDTAVYYSNTRGKSGLWCYNYWGQGTQVTVSS", "polyreactivity (PSR sort gate)": "high polyreactivity"}, {"sequence": "QVQLVESGGGLVQAGGSLRLSCAASGLTFHRYAMGWYRQAPGKERELVAAINYSGGRTYYADSVKGRFTISRDNAKNTVYLQMNSLKPEHTAVYYCAAPRASGYYWGQGTQVTVSS", "polyreactivity (PSR sort gate)": "high polyreactivity"}, {"sequence": "QVQLVESGGGLVQAGGSLRLSCAASGLTFHWYTMGGYRQAPGKERELVAAISSRGGSTYYADSVKGRFTISRDNAKNTDYLQMNSLKPEDTAVYYCAKARRVGFTPIYENWGQGTQVTVSS", "polyreactivity (PSR sort gate)": "high polyreactivity"}, {"sequence": "QVQLVESGGGLVQAGGSLRLSCAASGLTFIFNAMGWYRQAPGKERELVADISSGVNTNYADSVKGRFTISRDNAKNTVYLQMNSLKPEDTAVYYCNARRYWLRYDYWGQGTQVTVSS", "polyreactivity (PSR sort gate)": "low polyreactivity"}, {"sequence": "QVQLVESGGGLVQAGGSLRLSCAASGLTFIPNAMGWYREAPGKERELVAAISGTGGSTYYADSVKGRFTISRDNAKNTVYLLMNSLKPEDTAVYYCAARRRYKSGYWGQGTQVTVSS", "polyreactivity (PSR sort gate)": "high polyreactivity"}, {"sequence": "QVQLVESGGGLVQAGGSLRLSCAASGLTFIYYAMGWYRQAPGKERELVAAISVSGGSTYYADSVKGRFTISRDNAKNTVYLQMNSLKPEDTAVYYCAADWFVHKPRYQYSFDYWGQGTQVTVSS", "polyreactivity (PSR sort gate)": "low polyreactivity"}, {"sequence": "QVQLVESGGGLVQAGGSLRLSCAASGLTFKSYAMGWYRQAPGKERELVAAISWRGGRTYYADSVKGRFTISRDNAKNTVYLQMNSLKPEDTAVYYSNARSQQWWLSRYNYWGQGTQVTVSS", "polyreactivity (PSR sort gate)": "high polyreactivity"}, {"sequence": "QVQLVESGGGLVQAGGSLRLSCAASGLTFKSYTMGWYRQAPGKERELVATISGSGTRTYYADSVKGRFTISRDNAKNTVYLQMNSLKPEDTAVYYCARVIWYNNYFRYSGYRSDYWGQGTQVTVSS", "polyreactivity (PSR sort gate)": "high polyreactivity"}, {"sequence": "QVQLVESGGGLVQAGGSLRLSCAASGLTFKVYDMGGYRQAPGKERELVAAIWSDGDTYYADSVKGRFTISRDNAKNTVYLQMNSLKPEDTAVYYCAADPVWTVHFVFGNKYDYWGQGTQVTVSS", "polyreactivity (PSR sort gate)": "low polyreactivity"}, {"sequence": "QVQLVESGGGLVQAGGSLRLSCAASGLTFKWNTMGWYRQAPGKERELVAAISWRVVSTYYADSVKGRFTISRDNAKNTFYLQMNSLKQEDTAVYYDYWGQGTQVTVSS", "polyreactivity (PSR sort gate)": "low polyreactivity"}, {"sequence": "QVQLVESGGGLVQAGGSLRLSCAASGLTFKWYAMGWYRPAPGKERELVAAISRDGSTYYADSVKGRFTISRDNAKNTVYLQMNSLKPEDTAVYNCAADIWPSSLLADEYDYWGQGTQVTVSS", "polyreactivity (PSR sort gate)": "high polyreactivity"}, {"sequence": "QVQLVESGGGLVQAGGSLRLSCAASGLTFKYYAMGWYRQAPGKERELVAAISWRGGSTYYADSVKGRFTISRDNAKNTVYLQMNSLKPEDTAVYYCAAPGNNVRNAPRKRDYWGQGTQVTVSS", "polyreactivity (PSR sort gate)": "high polyreactivity"}, {"sequence": "QVQLVESGGGLVQAGGSLRLSCAASGLTFLKNAMGWYRQAPGKERELVAAISDGGSTNYADSVKGRFTISRDNAKNTVYLQMNSLKPEDTAVYYCAAVYTSASYGSWGQGTQVTVSS", "polyreactivity (PSR sort gate)": "low polyreactivity"}, {"sequence": "QVQLVESGGGLVQAGGSLRLSCAASGLTFLRNGMGWYRQAPGKERELVASITRSGARTYYADSVKGRFTISRDNAKNTVYLQMNSLKPEDTAVSYCAARAYVSHYGVSNFGDYYWGQGTQVTVSS", "polyreactivity (PSR sort gate)": "high polyreactivity"}, {"sequence": "QVQLVESGGGLVQAGGSLRLSCAASGLTFNVYAMGWSRQAPGTERELVAALTSGGRTYYADSVKGRFTISRDNEKNTVYLQMNSLKPEDTAVYYCSKSRWYGYSLSGAKRQRSFDYWGQGTQVTVSS", "polyreactivity (PSR sort gate)": "high polyreactivity"}, {"sequence": "QVQLVESGGGLVQAGGSLRLSCAASGLTFNYYAMGWYRQAPGKERDLVAASTSSGSSTYYADSVKGRFTISRDNAKNTVSLQMNSLKAEDTAVYYCAVSRCSFYWLVDYWGQGTQVTVSS", "polyreactivity (PSR sort gate)": "high polyreactivity"}]}]}
